Consider one molecule from patent US10258642B2, “Dextran sulfate for use in mobilization of cells” (TX MEDIC AB, priority 2013, dated 2019).

Assay [1] has as its system peripheral blood cells. Put plainly: combination with G-CSF, hematological analysis. It counts as in vivo, mice. Conditions: G-CSF 2×2.5 μg/day s.c. for 2 days. Here is the method:
G-CSF (NEUPOGEN®, Amgen, Holland) was supplied as sterile isotonic aqueous solution at 0.3 mg/mL and was diluted in normal saline to a concentration of 50 μg/mL. G-CSF was administered at a dose of 2.5 μg as a single subcutaneous injection, morning and evening Day -2 and Day -1. Dextran sulfate of different average molecular weights were used:
Standard treatment of patients prior to apheresis is based on daily injections of G-CSF for up to one week. Clinically dextran sulfate could be used in combination with G-CSF. In a study in mice 2.5 μg/animal of G-CSF was administered twice daily (8 hrs apart) for 2 days (Broxmeyer 1999).

For assay [2], the system named is CFU-GM. Conditions: colonies with >50 cells; G-CSF 10 μg/kg daily for five days and/or dextran sulfate 15 mg/kg once on day 5 (Han 1998); cited from earlier work.

B1: G-CSF: granulocyte-colony stimulation factor (NEUPOGEN, Amgen) (protein, chains of the INN, looked up)
chain: MTPLGPASSLPQSFLLKCLEQVRKIQGDGAALQEKLCATYKLCHPEELVLLGHSLGIPWAPLSSCPSQALQLAGCLSQLHSGLFLYQGLLQALEGISPELGPTLDTLQLDVADFATTIWQQMEELGMAPALQPTQGAMPAFASAFQRRAGGVLVASHLQSFLEVSYRVLRHLAQP
B1: the “number of WBC compared to normal” value in assay [1] is recorded as “increased the number of WBC”. For the same molecule, in assay [2], the CFU-GM level was 17.1±1.9 colonies.
